B1: scFv; the commonest letter at each place (parent)
chain 1: EVKLDETGGGLVQPGRPMKLSCVASGFTFSDYWMNWVRQSPEKGLEWVAQIRNKPYNYETYYSDSVKGRFTISRDDSKSSVYLQMNNLRVEDMGIYYCTGSYYGMDYWGQGTSVTVS
chain 2: DVVMTQTPLSLPVSLGDQASISCRSSQSLVHSNGNTYLRWYLQKPGQSPKVLIYKVSNRFSGVPDRFSGSGSGTDFTLKISRVEAEDLGVYFCSQSTHVPWTFGGGTKLEIK

What was measured:
fluorescein = variants of: B1; test: Kd (Tite-Seq); conditions: with fluorescein; format: scFv 4-4-20, heavy + light
[1] = variants of: B1; test: yeast surface expression (ratio to wild type); higher = more expressed; conditions: format: scFv 4-4-20, heavy + light

Variant: chain 1 EVKLDETGGGLVQPGRPMKLSCVASGFTFGDYWHNWVRQSPEKGLEWVAQIRNKPYNYETYYSDSVKGRFTISRDDSKSSVYLQMNNLRVEDMGIYYCTGSYYGMDYWGQGTSVTVS chain 2 DVVMTQTPLSLPVSLGDQASISCRSSQSLVHSNGNTYLRWYLQKPGQSPKVLIYKVSNRFSGVPDRFSGSGSGTDFTLKISRVEAEDLGVYFCSQSTHVPWTFGGGTKLEIK [chain 1 S30G M34H]
- Kd (fluorescein): 5660 nM
- yeast surface expression [1]: 0.659

Variant: chain 1 EVKLDETGGGLVQPGRPMKLSCVASGFTFGDYWINWVRQSPEKGLEWVAQIRNKPYNYETYYSDSVKGRFTISRDDSKSSVYLQMNNLRVEDMGIYYCTGSYYGMDYWGQGTSVTVS chain 2 DVVMTQTPLSLPVSLGDQASISCRSSQSLVHSNGNTYLRWYLQKPGQSPKVLIYKVSNRFSGVPDRFSGSGSGTDFTLKISRVEAEDLGVYFCSQSTHVPWTFGGGTKLEIK [chain 1 S30G M34I]
- Kd (fluorescein): 2.39 nM
- yeast surface expression [1]: 0.889

Variant: chain 1 EVKLDETGGGLVQPGRPMKLSCVASGFTFGDYWRNWVRQSPEKGLEWVAQIRNKPYNYETYYSDSVKGRFTISRDDSKSSVYLQMNNLRVEDMGIYYCTGSYYGMDYWGQGTSVTVS chain 2 DVVMTQTPLSLPVSLGDQASISCRSSQSLVHSNGNTYLRWYLQKPGQSPKVLIYKVSNRFSGVPDRFSGSGSGTDFTLKISRVEAEDLGVYFCSQSTHVPWTFGGGTKLEIK [chain 1 S30G M34R]
- Kd (fluorescein): 1.99 nM

Variant: chain 1 EVKLDETGGGLVQPGRPMKLSCVASGFTFGDYWMPFVRQSPEKGLEWVAQIRNKPYNYETYYSDSVKGRFTISRDDSKSSVYLQMNNLRVEDMGIYYCTGSYYGMDYWGQGTSVTVS chain 2 DVVMTQTPLSLPVSLGDQASISCRSSQSLVHSNGNTYLRWYLQKPGQSPKVLIYKVSNRFSGVPDRFSGSGSGTDFTLKISRVEAEDLGVYFCSQSTHVPWTFGGGTKLEIK [chain 1 S30G N35P W36F]
- Kd (fluorescein): ≥ 10000 nM
- yeast surface expression [1]: 0.718

Variant: chain 1 EVKLDETGGGLVQPGRPMKLSCVASGFTFGDYVMNWVRQSPEKGLEWVAQIRNKPYNYETYYSDSVKGRFTISRDDSKSSVYLQMNNLRVEDMGIYYCTGSYYGMDYWGQGTSVTVS chain 2 DVVMTQTPLSLPVSLGDQASISCRSSQSLVHSNGNTYLRWYLQKPGQSPKVLIYKVSNRFSGVPDRFSGSGSGTDFTLKISRVEAEDLGVYFCSQSTHVPWTFGGGTKLEIK [chain 1 S30G W33V]
- Kd (fluorescein): ≥ 10000 nM
- yeast surface expression [1]: 1

Variant: chain 1 EVKLDETGGGLVQPGRPMKLSCVASGFTFGDYWMNLVRQSPEKGLEWVAQIRNKPYNYETYYSDSVKGRFTISRDDSKSSVYLQMNNLRVEDMGIYYCTGSYYGMDYWGQGTSVTVS chain 2 DVVMTQTPLSLPVSLGDQASISCRSSQSLVHSNGNTYLRWYLQKPGQSPKVLIYKVSNRFSGVPDRFSGSGSGTDFTLKISRVEAEDLGVYFCSQSTHVPWTFGGGTKLEIK [chain 1 S30G W36L]
- Kd (fluorescein): ≥ 10000 nM
- yeast surface expression [1]: 0.597

Variant: chain 1 EVKLDETGGGLVQPGRPMKLSCVASGFTFGDYWMNSVRQSPEKGLEWVAQIRNKPYNYETYYSDSVKGRFTISRDDSKSSVYLQMNNLRVEDMGIYYCTGSYYGMDYWGQGTSVTVS chain 2 DVVMTQTPLSLPVSLGDQASISCRSSQSLVHSNGNTYLRWYLQKPGQSPKVLIYKVSNRFSGVPDRFSGSGSGTDFTLKISRVEAEDLGVYFCSQSTHVPWTFGGGTKLEIK [chain 1 S30G W36S]
- Kd (fluorescein): 1470 nM
- yeast surface expression [1]: 0.275
